# B1: human rhinovirus 14 (HRV14) (other)
# chain: GAQVSTQKSGSHENQNILTNGSNQTFTVINYYKDAASTSSAGQSLSMDPSKFTEPVKDLMLKGAPALNSPNVEACGYSDRVQQITLGNSTITTQEAANAVVCYAEWPEYLPDVDASDVNKTSKPDTSVCRFYTLDSKTWTTGSKGWCWKLPDALKDMGVFGQNMFFHSLGRSGYTVHVQCNATKFHSGCLLVVVIPEHQLASHEGGNVSVKYTFTHPGERGIDLSSANEVGGPVKDVIYNMNGTLLGNLLIFPHQFINLRTNNTATIVIPYINSVPIDSMTRHNNVSLMVIPIAPLTVPTGATPSLPITVTIAPMCTEFSGIRSKSIVPQGLPTTTLPGSGQFLTTDDRQSPSALPNYEPTPRIHIPGKVHNLLEIIQVDTLIPMNNTHTKDEVNSYLIPLNANRQNEQVFGTNLFIGDGVFKTTLLGEIVQYYTHWSGSLRFSLMYTGPALSSAKLILAYTPPGARGPQDRREAMLGTHVVWDIGLQSTIVMTIPWTSGVQFRYTDPDTYTSAGFLSCWYQTSLILPPETTGQVYLLSFISACPDFKLRLMKDTQTISQTVALTEGLGDELEEVIVEKTKQTVASISSGPKHTQKVPILTANETGATMPVLPSDSIETRTTYMHFNGSETDVECFLGRAACVHVTEIQNKDATGIDNHREAKLFNDWKINLSSLVQLRKKLELFTYVRFDSEYTILATASQPDSANYSSNLVVQAMYVPPGAPNPKEWDDYTWQSASNPSVFFKVGDTSRFSVPYVGLASAYNCFYDGYSHDDAETQYGITVLNHMGSMAFRIVNEHDEHKTLVKIRVYHRAKHVEAWIPRAPRALPYTSIGRTNYPKNTEPVIKKRKGDIKSY
# modifications: [35S]-Met labeled
# How the values were obtained:
# Assay in all cases: 35S-HRV14 on COS cells
# ICAM-1 Y52/FA = ICAM-1 Y52/FA (human, UniProt P05362)
# Description: (§1) COS cells were seeded into 10 cm tissue culture plates such that they would be 50% confluent by 16-24 hrs. COS cells were then washed once with TBS and incubated for 4 hrs with 4 ml RPMI containing 10% Nu sera (Collaborative) 5 pg/ml chloroquine, 3 μg of mutant plasmid and 200 μg/ml DEAE-dextran sulfate. Cells were then washed with 10% DMSO/PBS followed by PBS and cultured 16 hrs in culture media. Culture media was replaced with fresh media and at 48 hrs post transfection (OS cells were suspended by trypsin/EDTA (Gibco) treatment and divided into 2, 10 cm plates as well as 24 well tissue culture plates for HRV binding. At 72 hrs cells were harvested from 10 cm plates with 5 mM EDTA/HBSS and processed for adhesion to LFA-1 coated plastic and immunofluorescence.
# (§2) Binding occurred in 1 hr at 35° C. in a 5% CO₂ atmosphere with horizontal rotation (100 rpm). Unbound [³⁵S] HRV14 was aspirated, COS cells were gently washed with 150 ml of HRV buffer and then solubilized with 1% SDS in PBS for scintillation counting.
# (§3) In Table 25, the notation for the mutations uses the one-letter code for the wild-type sequence followed by a slash and the one-letter code for the corresponding mutant sequence. The position of the first amino acid within the sequence is indicated. Wild type residues precede the slash followed by the residues they were substituted for in the mutant. COS cells expressing ICAM-1 mutants were tested for adherence to LFA-1 coated plastic and for binding 35S met-labeled HRV14. […] Binding is presented as mean and standard error (SE) for multiple experiments (n). […] The specific linear fluorescence intensity (SLFI) of CL203 for each mutant is normalized to that of wild type CL203 SLFI (% WT) as discussed above. The SLFI of RR1/1, R6.5 and LB-2 SLFI is normalized to the CL203 SLFI of the mutant (% CL203) as described above.
# ICAM-1 G101K/AN = ICAM-1 G101K/AN (human, UniProt P05362)
# Description: as §1, §2, §3
# ICAM-1 N175TSA/QTLG = ICAM-1 N175TSA/QTLG (human, UniProt P05362)
# Description: as §1, §2, §3
# ICAM-1 E90/K = ICAM-1 E90/K (human, UniProt P05362)
# Description: as §1, §2, §3
# ICAM-1 Q1/E = ICAM-1 Q1/E (human, UniProt P05362)
# Description: as §1, §2, §3
# ICAM-1 S3VS/AGL = ICAM-1 S3VS/AGL (human, UniProt P05362)
# Description: as §1, §2, §3
# ICAM-1 K128/R = ICAM-1 K128/R (human, UniProt P05362)
# Description: as §1, §2, §3
# ICAM-1 L91/A = ICAM-1 L91/A (human, UniProt P05362)
# Description: as §1, §2, §3
# ICAM-1 K40/A = ICAM-1 K40/A (human, UniProt P05362)
# Description: as §1, §2, §3
# ICAM-1 Q73/H = ICAM-1 Q73/H (human, UniProt P05362)
# Description: as §1, §2, §3
# ICAM-1 Q73/T = ICAM-1 Q73/T (human, UniProt P05362)
# Description: as §1, §2, §3
# ICAM-1 R13/Q = ICAM-1 R13/Q (human, UniProt P05362)
# Description: as §1, §2, §3
# ICAM-1 K39KE/ERQ = ICAM-1 K39KE/ERQ (human, UniProt P05362)
# Description: as §1, §2, §3
# ICAM-1 Y52/F = ICAM-1 Y52/F (human, UniProt P05362)
# Description: as §1, §2, §3
# ICAM-1 E34/A = ICAM-1 E34/A (human, UniProt P05362)
# Description: as §1, §2, §3
# ICAM-1 D71/N = ICAM-1 D71/N (human, UniProt P05362)
# Description: as §1, §2, §3
# ICAM-1 D60/K = ICAM-1 D60/K (human, UniProt P05362)
# Description: as §1, §2, §3
# ICAM-1 D71/E = ICAM-1 D71/E (human, UniProt P05362)
# Description: as §1, §2, §3
# ICAM-1 G46NN/ASI = ICAM-1 G46NN/ASI (human, UniProt P05362)
# Description: as §1, §2, §3
# ICAM-1 N175/A = ICAM-1 N175/A (human, UniProt P05362)
# Description: as §1, §2, §3
# ICAM-1 Y83/S = ICAM-1 Y83/S (human, UniProt P05362)
# Description: as §1, §2, §3
# ICAM-1 N56V/HM = ICAM-1 N56V/HM (human, UniProt P05362)
# Description: as §1, §2, §3
# ICAM-1 D60/Q = ICAM-1 D60/Q (human, UniProt P05362)
# Description: as §1, §2, §3
# ICAM-1 N118/Q = ICAM-1 N118/Q (human, UniProt P05362)
# Description: as §1, §2, §3
# ICAM-1 M64/I = ICAM-1 M64/I (human, UniProt P05362)
# Description: as §1, §2, §3
# ICAM-1 E111GGA/KAGS = ICAM-1 E111GGA/KAGS (human, UniProt P05362)
# Description: as §1, §2, §3
# ICAM-1 A178/G = ICAM-1 A178/G (human, UniProt P05362)
# Description: as §1, §2, §3
# ICAM-1 N156/E = ICAM-1 N156/E (human, UniProt P05362)
# Description: as §1, §2, §3
# ICAM-1 S74/A = ICAM-1 S74/A (human, UniProt P05362)
# Description: as §1, §2, §3
binder,measurement,setting,value
B1,HRV Binding %,ICAM-1 Y52/FA,125 % of wild type
same,HRV Binding %,ICAM-1 G101K/AN,140 % of wild type
same,HRV Binding %,ICAM-1 N175TSA/QTLG,40 % of wild type
same,HRV Binding %,ICAM-1 E90/K,50 % of wild type
same,HRV Binding %,ICAM-1 Q1/E,149 % of wild type
same,HRV Binding %,ICAM-1 S3VS/AGL,61 % of wild type
same,HRV Binding %,ICAM-1 K128/R,137 % of wild type
same,HRV Binding %,ICAM-1 L91/A,105 % of wild type
same,HRV Binding %,ICAM-1 K40/A,89 % of wild type
same,HRV Binding %,ICAM-1 Q73/H,117 % of wild type
same,HRV Binding %,ICAM-1 Q73/T,133 % of wild type
same,HRV Binding %,ICAM-1 R13/Q,60 % of wild type
same,HRV Binding %,ICAM-1 K39KE/ERQ,61 % of wild type
same,HRV Binding %,ICAM-1 Y52/F,174 % of wild type
same,HRV Binding %,ICAM-1 E34/A,66 % of wild type
same,HRV Binding %,ICAM-1 D71/N,62 % of wild type
same,HRV Binding %,ICAM-1 D60/K,4 % of wild type
same,HRV Binding %,ICAM-1 D71/E,140 % of wild type
same,HRV Binding %,ICAM-1 G46NN/ASI,9 % of wild type
same,HRV Binding %,ICAM-1 N175/A,129 % of wild type
same,HRV Binding %,ICAM-1 Y83/S,86 % of wild type
same,HRV Binding %,ICAM-1 N56V/HM,101 % of wild type
same,HRV Binding %,ICAM-1 D60/Q,20 % of wild type
same,HRV Binding %,ICAM-1 N118/Q,110 % of wild type
same,HRV Binding %,ICAM-1 M64/I,107 % of wild type
same,HRV Binding %,ICAM-1 E111GGA/KAGS,162 % of wild type
same,HRV Binding %,ICAM-1 A178/G,102 % of wild type
same,HRV Binding %,ICAM-1 N156/E,107 % of wild type
same,HRV Binding %,ICAM-1 S74/A,156 % of wild type
